These results are taken from patent publication EP1516629B1.

The target of assay [1] is rhesus CD18 (rhesus) (UniProt H9Z8N5). The assay is described as follows: saturation binding, rhesus leukocytes, donor 2, Kd(app).
The target is the same in assay [2]. The assay is described as follows: saturation binding, rhesus leukocytes, donor 1, Kd(app).
Assay [3] shares this target. Nature of the assay: cell-based or functional assay.
The target in another assay is human CD18 (human) (UniProt P05107). Nature of the assay: cell-based or functional assay.
human CD18 (human), sequence (P05107 23-769): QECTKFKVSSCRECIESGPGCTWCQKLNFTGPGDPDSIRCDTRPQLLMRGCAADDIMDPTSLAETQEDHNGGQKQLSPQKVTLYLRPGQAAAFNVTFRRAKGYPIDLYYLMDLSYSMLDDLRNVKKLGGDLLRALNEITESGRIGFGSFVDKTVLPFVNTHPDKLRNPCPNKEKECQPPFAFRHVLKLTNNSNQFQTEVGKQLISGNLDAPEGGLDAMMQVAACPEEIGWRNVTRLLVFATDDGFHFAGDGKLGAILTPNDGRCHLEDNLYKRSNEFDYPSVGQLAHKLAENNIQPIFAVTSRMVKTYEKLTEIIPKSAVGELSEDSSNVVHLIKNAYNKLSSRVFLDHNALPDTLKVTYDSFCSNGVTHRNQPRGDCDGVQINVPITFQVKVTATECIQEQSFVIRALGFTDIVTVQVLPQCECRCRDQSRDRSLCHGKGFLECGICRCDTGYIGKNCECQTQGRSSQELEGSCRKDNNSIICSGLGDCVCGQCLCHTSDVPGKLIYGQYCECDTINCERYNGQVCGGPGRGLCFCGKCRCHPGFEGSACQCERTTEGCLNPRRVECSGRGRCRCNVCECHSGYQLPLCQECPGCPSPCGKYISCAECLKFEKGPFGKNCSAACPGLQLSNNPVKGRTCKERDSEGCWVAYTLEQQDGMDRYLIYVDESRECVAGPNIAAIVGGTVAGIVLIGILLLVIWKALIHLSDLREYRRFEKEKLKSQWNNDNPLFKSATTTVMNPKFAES

Substance murine anti-human CD18 antibody MHM23 had a Kd in the assay with rhesus CD18 (rhesus) [1] of 4.5 nM. In the assay with rhesus CD18 (rhesus) [2], the Kd was found to be 3.9 nM. Further, in the assay with rhesus CD18 (rhesus) [3], the IC50, blocking of cell adhesion, RhLy:HuICAM is 1.2 nM and the IC50, blocking of cell adhesion, RhLy:HuK is 1.6 nM. This substance registered an IC50, blocking of cell adhesion, Rh/HuCD11a:HuK with human CD18 (human) of 1.4 nM.
